Data published in patent US7994281 (EUROPEAN MOLECULAR BIOLOGY LABORATORY, dated 2011).
One block for each binder: values may come before it.

Legend:
[1] = target: T1, DR4 (TRAIL-R1) Fc, recombinant receptor from R&D Systems (UniProt O00220 24-239, limits assumed); test: SPR, Biacore 3000, 25 C, receptor amine-coupled to CM5 chip, ligand 2 ug/ml
T1 construct: also called soluble TRAIL-R1 Fc; not shown: Fc part of the bought Fc fusion
Method: (§1) Binding experiments were performed using a surface plasmon resonance-based biosensor Biacore 3000 (Biacore AB, Uppsala, Sweden), at 25° C. Recombinant receptors were ordered from R&D systems (R&D systems, Minneapolis, Minn., USA). Immobilization of the receptors on the sensor surface of a Biacore CM5 sensor chip was performed following a standard amine coupling procedure according to the manufacturer's instructions. A reference surface was generated simultaneously under the same conditions but without receptor injection and used as a blank to correct for instrument and buffer artifacts. […] Binding of ligands to the receptors was monitored in real-time. The receptor/sensor surface was regenerated using 3 M sodium acetate pH 5.2 injections.

[2] = target: T1, DR4 (TRAIL-R1) Fc, recombinant receptor …; test: SPR (Biacore): clarified E. coli extract diluted 1:50 injected over immobilised DR4, DR5, DcR1 and RANK; bars are the response as a fraction of the DR5 response
Method: (§2) Control extracts of BL21 (DE3) culture without an over-expression plasmid and of a BL21 (DE3) culture with plasmid over-expressing SH3 domain were also injected.

[3] = target: T1, DR4 (TRAIL-R1) Fc, recombinant receptor …; test: SPR (Biacore 3000, 25 C): ligand at 2 ug/ml injected over receptor amine-coupled to a CM5 chip
Method: as §1

[4] = target: T2, DR5 (TRAIL-R2) Fc, recombinant receptor from R&D Systems (UniProt O14763 54-182, limits assumed); test: SPR, Biacore 3000, 37 C, receptor Fc on CM5 chip, ligand 0.1-250 nM
T2 construct: also called soluble TRAIL-R2 Fc; immobilized TRAIL-R2 Fc; not shown: Fc part of the bought Fc fusion
T2 sequence (O14763 54-182 limits assumed): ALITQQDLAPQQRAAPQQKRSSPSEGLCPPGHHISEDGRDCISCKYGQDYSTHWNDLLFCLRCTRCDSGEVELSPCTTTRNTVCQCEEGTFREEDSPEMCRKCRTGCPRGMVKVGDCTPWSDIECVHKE
Method: (§3) Binding experiments were performed using a surface plasmon resonance-based biosensor Biacore 3000 (Biacore AB, Uppsala, Sweden), at 37° C. Recombinant receptors were ordered from R&D systems (R&D systems, Minneapolis, Minn., USA). […] Receptors were coated at a level of ~600-800 RU. […] Between injections the receptor/sensor surface was regenerated using 30 µl of 3 M sodium acetate pH 5.2.

[5] = target: T1, DR4 (TRAIL-R1) Fc, recombinant receptor …; test: as above
Method: as §3

[6] = target: T3, murine RANK (receptor) (murine, UniProt O35305 31-214, limits assumed); test: SPR (Biacore): clarified E. coli extract diluted 1:50 injected over immobilised DR4, DR5, DcR1 and RANK; bars are the response as a fraction of the DR4 response
T3 construct: Control surface in the SPR screening
T3 sequence (looked up): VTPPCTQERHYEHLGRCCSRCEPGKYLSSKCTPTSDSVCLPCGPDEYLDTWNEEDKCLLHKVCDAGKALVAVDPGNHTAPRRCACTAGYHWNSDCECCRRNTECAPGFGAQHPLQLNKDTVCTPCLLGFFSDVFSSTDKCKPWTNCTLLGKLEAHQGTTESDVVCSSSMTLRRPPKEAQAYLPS
Method: as §2

[7] = target: T1, DR4 (TRAIL-R1) Fc, recombinant receptor …; test: SPR (Biacore 3000, 37 C): purified ligand at 60 nM over immobilised receptor Fc

T1 sequence (O00220 24-239 limits assumed): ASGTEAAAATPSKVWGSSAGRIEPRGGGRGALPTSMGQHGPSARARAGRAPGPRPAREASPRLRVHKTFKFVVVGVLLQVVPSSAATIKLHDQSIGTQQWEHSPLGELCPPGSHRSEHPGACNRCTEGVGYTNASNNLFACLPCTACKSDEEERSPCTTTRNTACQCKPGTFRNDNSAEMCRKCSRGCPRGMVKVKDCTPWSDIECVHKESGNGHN

B1: TRAIL mutant C1 (M1 + M3: E194I, I196S, S225A) (ligand)
chain: VRERGPQRVAAHITGTRGRSNTLSSPNSKNEKALGRKINSWESSRSGHSFLSNLHLRNGELVIHEKGFYYIYSQTYFRFQIESKENTKNDKQMVQYIYKYTSYPDPILLMKAARNSCWSKDAEYGLYSIYQGGIFELKENDRIFVSVTNEHLIDMDHEASFFGAFLVG
notes: Combination of M1 and M3 on soluble TRAIL 114-281
binding result [1]: binds

B2: TRAIL mutant I220M (ligand)
chain: VRERGPQRVAAHITGTRGRSNTLSSPNSKNEKALGRKINSWESSRSGHSFLSNLHLRNGELVIHEKGFYYIYSQTYFRFQEEIKENTKNDKQMVQYIYKYTSYPDPMLLMKSARNSCWSKDAEYGLYSIYQGGIFELKENDRIFVSVTNEHLIDMDHEASFFGAFLVG
binding result [2]: binds

B3: TRAIL mutant M1 (E194I, I196S) (ligand)
chain: VRERGPQRVAAHITGTRGRSNTLSSPNSKNEKALGRKINSWESSRSGHSFLSNLHLRNGELVIHEKGFYYIYSQTYFRFQIESKENTKNDKQMVQYIYKYTSYPDPILLMKSARNSCWSKDAEYGLYSIYQGGIFELKENDRIFVSVTNEHLIDMDHEASFFGAFLVG
notes: Stability mutant built on soluble TRAIL 114-281
binding result [3]: binds

B4: TRAIL mutant D269K (ligand)
chain: VRERGPQRVAAHITGTRGRSNTLSSPNSKNEKALGRKINSWESSRSGHSFLSNLHLRNGELVIHEKGFYYIYSQTYFRFQEEIKENTKNDKQMVQYIYKYTSYPDPILLMKSARNSCWSKDAEYGLYSIYQGGIFELKENDRIFVSVTNEHLIDMKHEASFFGAFLVG
fold improvement in binding relative to wild-type TRAIL [4]: > 10 fold | fold reduction in binding relative to wild-type TRAIL [5]: > 15 fold

B5: TRAIL mutant R130E (ligand)
chain: VRERGPQRVAAHITGTEGRSNTLSSPNSKNEKALGRKINSWESSRSGHSFLSNLHLRNGELVIHEKGFYYIYSQTYFRFQEEIKENTKNDKQMVQYIYKYTSYPDPILLMKSARNSCWSKDAEYGLYSIYQGGIFELKENDRIFVSVTNEHLIDMDHEASFFGAFLVG
binding result [2]: binds | binding result [6]: no binding

B7: TRAIL mutant E155M (ligand)
chain: VRERGPQRVAAHITGTRGRSNTLSSPNSKNEKALGRKINSWMSSRSGHSFLSNLHLRNGELVIHEKGFYYIYSQTYFRFQEEIKENTKNDKQMVQYIYKYTSYPDPILLMKSARNSCWSKDAEYGLYSIYQGGIFELKENDRIFVSVTNEHLIDMDHEASFFGAFLVG
binding result [2]: binds

B8: TRAIL mutant R149D (ligand)
chain: VRERGPQRVAAHITGTRGRSNTLSSPNSKNEKALGDKINSWESSRSGHSFLSNLHLRNGELVIHEKGFYYIYSQTYFRFQEEIKENTKNDKQMVQYIYKYTSYPDPILLMKSARNSCWSKDAEYGLYSIYQGGIFELKENDRIFVSVTNEHLIDMDHEASFFGAFLVG
binding result [2]: binds

B9: TRAIL mutant D218R (ligand)
chain: VRERGPQRVAAHITGTRGRSNTLSSPNSKNEKALGRKINSWESSRSGHSFLSNLHLRNGELVIHEKGFYYIYSQTYFRFQEEIKENTKNDKQMVQYIYKYTSYPRPILLMKSARNSCWSKDAEYGLYSIYQGGIFELKENDRIFVSVTNEHLIDMDHEASFFGAFLVG
binding result [2]: binds | binding result [6]: no binding

B10: TRAIL mutant M2 (D203I, Q205M, Y237F) (ligand)
chain: VRERGPQRVAAHITGTRGRSNTLSSPNSKNEKALGRKINSWESSRSGHSFLSNLHLRNGELVIHEKGFYYIYSQTYFRFQEEIKENTKNIKMMVQYIYKYTSYPDPILLMKSARNSCWSKDAEFGLYSIYQGGIFELKENDRIFVSVTNEHLIDMDHEASFFGAFLVG
notes: as for B3
binding result [3]: binds

B11: TRAIL mutant D269HE195R (ligand)
chain: VRERGPQRVAAHITGTRGRSNTLSSPNSKNEKALGRKINSWESSRSGHSFLSNLHLRNGELVIHEKGFYYIYSQTYFRFQERIKENTKNDKQMVQYIYKYTSYPDPILLMKSARNSCWSKDAEYGLYSIYQGGIFELKENDRIFVSVTNEHLIDMHHEASFFGAFLVG
fold improvement in binding relative to wild-type TRAIL [4]: > 10 fold | fold reduction in binding relative to wild-type TRAIL [5]: > 15 fold

B17: TRAIL mutant D269R (ligand)
chain: VRERGPQRVAAHITGTRGRSNTLSSPNSKNEKALGRKINSWESSRSGHSFLSNLHLRNGELVIHEKGFYYIYSQTYFRFQEEIKENTKNDKQMVQYIYKYTSYPDPILLMKSARNSCWSKDAEYGLYSIYQGGIFELKENDRIFVSVTNEHLIDMRHEASFFGAFLVG
fold improvement in binding relative to wild-type TRAIL [4]: > 10 fold | fold reduction in binding relative to wild-type TRAIL [5]: > 15 fold

More lines, now with the values ahead:

binding result [7]: no binding (tested: 60 nM)
B6: TRAIL mutant R191ED267R (ligand)
chain: VRERGPQRVAAHITGTRGRSNTLSSPNSKNEKALGRKINSWESSRSGHSFLSNLHLRNGELVIHEKGFYYIYSQTYFEFQEEIKENTKNDKQMVQYIYKYTSYPDPILLMKSARNSCWSKDAEYGLYSIYQGGIFELKENDRIFVSVTNEHLIRMDHEASFFGAFLVG

binding result [2]: binds | binding result [6]: no binding
B12: TRAIL mutant G131R (ligand)
chain: VRERGPQRVAAHITGTRRRSNTLSSPNSKNEKALGRKINSWESSRSGHSFLSNLHLRNGELVIHEKGFYYIYSQTYFRFQEEIKENTKNDKQMVQYIYKYTSYPDPILLMKSARNSCWSKDAEYGLYSIYQGGIFELKENDRIFVSVTNEHLIDMDHEASFFGAFLVG

binding result [2]: binds | binding result [6]: no binding
B13: TRAIL mutant G160K (ligand)
chain: VRERGPQRVAAHITGTRGRSNTLSSPNSKNEKALGRKINSWESSRSKHSFLSNLHLRNGELVIHEKGFYYIYSQTYFRFQEEIKENTKNDKQMVQYIYKYTSYPDPILLMKSARNSCWSKDAEYGLYSIYQGGIFELKENDRIFVSVTNEHLIDMDHEASFFGAFLVG

binding result [2]: binds
B14: TRAIL mutant D218F (ligand)
chain: VRERGPQRVAAHITGTRGRSNTLSSPNSKNEKALGRKINSWESSRSGHSFLSNLHLRNGELVIHEKGFYYIYSQTYFRFQEEIKENTKNDKQMVQYIYKYTSYPFPILLMKSARNSCWSKDAEYGLYSIYQGGIFELKENDRIFVSVTNEHLIDMDHEASFFGAFLVG

binding result [2]: binds
B15: TRAIL mutant I220H (ligand)
chain: VRERGPQRVAAHITGTRGRSNTLSSPNSKNEKALGRKINSWESSRSGHSFLSNLHLRNGELVIHEKGFYYIYSQTYFRFQEEIKENTKNDKQMVQYIYKYTSYPDPHLLMKSARNSCWSKDAEYGLYSIYQGGIFELKENDRIFVSVTNEHLIDMDHEASFFGAFLVG

binding result [2]: binds
B16: TRAIL mutant R149H (ligand)
chain: VRERGPQRVAAHITGTRGRSNTLSSPNSKNEKALGHKINSWESSRSGHSFLSNLHLRNGELVIHEKGFYYIYSQTYFRFQEEIKENTKNDKQMVQYIYKYTSYPDPILLMKSARNSCWSKDAEYGLYSIYQGGIFELKENDRIFVSVTNEHLIDMDHEASFFGAFLVG

binding result [7]: no binding (tested: 60 nM)
B18: TRAIL mutant D269HT214R (ligand)
chain: VRERGPQRVAAHITGTRGRSNTLSSPNSKNEKALGRKINSWESSRSGHSFLSNLHLRNGELVIHEKGFYYIYSQTYFRFQEEIKENTKNDKQMVQYIYKYRSYPDPILLMKSARNSCWSKDAEYGLYSIYQGGIFELKENDRIFVSVTNEHLIDMHHEASFFGAFLVG
notes: also called T214R-D269H

binding result [2]: binds | binding result [6]: no binding
B19: TRAIL mutant D218Y (ligand)
chain: VRERGPQRVAAHITGTRGRSNTLSSPNSKNEKALGRKINSWESSRSGHSFLSNLHLRNGELVIHEKGFYYIYSQTYFRFQEEIKENTKNDKQMVQYIYKYTSYPYPILLMKSARNSCWSKDAEYGLYSIYQGGIFELKENDRIFVSVTNEHLIDMDHEASFFGAFLVG
